Laboratory results from patent US20140221622A1 (AbbVie / Abbott, published 2014).

Tests used:
[1] = biological target: T1, CD40 on CD40-overexpressing HEK 293 cells (UniProt P25942 21-277, limits assumed); assay: flow cytometry on CD40-overexpressing HEK 293 cells, APC anti-human Fc
T1 construct: whole, on cells
Description: First, the CD40-overexpressing HEK 293 cells were stained with hIgG1 or testing material at a range of 0.01 μg/ml to 10 μg/ml. Followed by 30 min incubation on ice with an APC-conjugated anti-human Fc antibody. Cells then are washed twice and resuspended in PBS/FBS. Fluorescence was measured using a Becton Dickinson FACSCalibur (Becton Dickinson, San Jose, Calif.).
The binding of proteins were examined by FACS.

[2] = biological target: T2, c-Met on tumor cell lines (A549, IM-95, SNU-5, SNU-620) (UniProt P08581 25-1390, limits assumed); assay: cell-based or functional assay
biotin-labeled cMet [3] = biological target: T3, biotin-labeled cMet (UniProt P08581 25-932, limits assumed, biotin label (site not stated)); assay: c-Met binding ELISA by the method of Example 1.3
T3 construct: also called cMet antigen
T3 sequence (P08581 25-932 limits assumed): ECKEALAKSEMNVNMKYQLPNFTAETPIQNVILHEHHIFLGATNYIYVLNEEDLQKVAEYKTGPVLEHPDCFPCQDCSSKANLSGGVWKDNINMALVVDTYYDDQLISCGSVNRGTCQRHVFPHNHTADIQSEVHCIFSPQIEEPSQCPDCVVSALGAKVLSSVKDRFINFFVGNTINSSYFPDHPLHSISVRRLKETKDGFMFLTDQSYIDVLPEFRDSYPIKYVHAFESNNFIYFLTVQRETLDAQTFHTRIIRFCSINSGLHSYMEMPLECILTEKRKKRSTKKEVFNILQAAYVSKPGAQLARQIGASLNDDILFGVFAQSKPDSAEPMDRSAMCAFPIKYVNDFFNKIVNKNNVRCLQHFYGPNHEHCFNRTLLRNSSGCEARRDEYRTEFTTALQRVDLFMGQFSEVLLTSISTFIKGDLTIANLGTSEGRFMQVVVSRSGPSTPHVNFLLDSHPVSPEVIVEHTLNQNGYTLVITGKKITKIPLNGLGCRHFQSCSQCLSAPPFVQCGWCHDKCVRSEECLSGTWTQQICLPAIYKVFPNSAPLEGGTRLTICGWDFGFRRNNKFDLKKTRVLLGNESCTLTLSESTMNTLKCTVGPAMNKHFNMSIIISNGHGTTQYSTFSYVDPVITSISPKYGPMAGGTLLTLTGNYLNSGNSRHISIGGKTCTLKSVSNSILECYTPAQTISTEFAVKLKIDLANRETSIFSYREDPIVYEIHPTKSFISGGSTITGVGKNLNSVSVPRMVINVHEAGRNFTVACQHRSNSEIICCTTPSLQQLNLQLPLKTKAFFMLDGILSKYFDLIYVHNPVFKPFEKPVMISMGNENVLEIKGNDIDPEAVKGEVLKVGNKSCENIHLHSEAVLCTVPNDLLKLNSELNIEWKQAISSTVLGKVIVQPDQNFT

biotin-labeled cMet [4] = biological target: T3, biotin-labeled cMet; assay: ELISA: antibody captured on anti-IgG Fc coat, bound biotin-labeled cMet detected with streptavidin-HRP
Description: cMet binding ELISA was performed to characterize the antigen binding property of cMet antibodies. 96-well ELISA plates were coated with 100 μl/well 5 μg/ml anti-mouse IgG Fc in PBS at 4° C. overnight. After 3 washes with PBS/0.05% Tween®20, the plates were blocked with 5% milk in PBS for 1 hour at room temperature. After another 3 washes with PBS/0.05% Tween®20, 100 μl cMet antibody was added to each well followed by an incubation of 1 hour at room temperature. Binding biotin-labeled cMet was detected by Streptavidin-horseradish peroxidase (KPL, Gaithersburg, Md.) and tetramethylbenzidine (Thermo Scientific, Rockford, Ill.). Final absorbances were acquired at 450 nm after stopping the reactions with 2 mol/L H₂SO₄. […] The terms EC₅₀ and IC₅₀ may be used interchangeably in this Example to reflect the concentration of the antibody which induces a response halfway between the baseline and the maximum after a specified exposure time.

[5] = biological target: T4, Neonatal Fc receptor (FcRn) on CHO-FcRnGPI cells; assay: flow cytometry on CHO-FcRnGPI cells, pH 6.4
T4 construct: whole, on cells; nothing more is said; also called FcRn receptors
T4 sequence (P55899 24-297, chain 1 of 2): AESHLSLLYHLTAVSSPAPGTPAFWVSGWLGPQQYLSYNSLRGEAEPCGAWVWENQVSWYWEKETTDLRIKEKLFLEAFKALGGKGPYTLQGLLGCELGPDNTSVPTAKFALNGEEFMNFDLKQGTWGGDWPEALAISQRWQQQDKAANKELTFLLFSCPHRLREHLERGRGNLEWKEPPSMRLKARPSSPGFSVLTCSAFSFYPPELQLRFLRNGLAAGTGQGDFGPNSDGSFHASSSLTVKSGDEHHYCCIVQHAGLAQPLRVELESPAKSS
T4 sequence (P61769 21-119, chain 2 of 2, further chain): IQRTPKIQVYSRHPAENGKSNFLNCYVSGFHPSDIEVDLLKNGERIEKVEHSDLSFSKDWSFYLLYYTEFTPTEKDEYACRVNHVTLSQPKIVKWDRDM
Description: CHO-FcRnGPI cells (Stable FcRn receptor expressor) and CHO-pBudl l cells (non-FcRn expressor) were aliquotted into 96-well plates at 1×10⁵ cells/well. Cells were resuspended in 150 μl FACS buffer. […] 30 μl of diluted antibody or half-Ig binding protein was added to each well and incubated on ice for 1 hour. Following 2 washes with FACS buffer, 50 μl of secondary antibody R-phycoerythrin-conjugated AfiniPure F(ab′)2 Fragment goat anti-human IgG (Jackson ImmunoResearch, West Grove, Pa.) diluted in FACS buffer pH 6.4 or pH7.4 was added. The mixture was incubated for 30 min on ice. The cells were resuspended in 100 μl PBS with 1% FBS (Invitrogen, Carlsbad, Calif.) and 2 μg/ml propidium iodide (Invitrogen, Carlsbad, Calif.) of the corresponding pH. Final FACS data were acquired on a FACScan (Becton Dickinson, Franklin Lakes, N.J.).

[6] = biological target: T5, rhcMetECD (cMet extracellular domain) (human, UniProt P08581 25-932); assay: SPR (Biacore 3000), apparent stoichiometry at saturating rhcMetECD
T5 construct: extracellular domain; also called cMet antigen
T5 sequence (P08581 25-932): as the sequence (P08581 25-932 limits assumed) above
Excerpt: Unreacted moieties on the biosensor surface were blocked with ethanolamine. Modified carboxymethyl dextran surface in flowcell 2 and 4 was used as a reaction surface. Unmodified carboxymethyl dextran without goat anti-human IgG in flow cell 1 and 3 was used as the reference surface. For kinetic analysis, rate equations derived from the 1:1 Langmuir binding model were fitted simultaneously to association and dissociation phases of all ten injections (using global fit analysis) using the Bioevaluation 4.0.1 software. Purified MBody samples were diluted in HEPES-buffered saline for capture across goat anti-human IgG Fc specific reaction surfaces and injected over reaction matrices at a flow rate of 5 ml/min. […] The equilibrium dissociation constant (M) of the reaction between MBody and rhcMetECD was then calculated from the kinetic rate constants by the following formula: KD=koff/kon. Aliquots of rhcMetECD samples were also simultaneously injected over a blank reference and reaction CM surface to record and subtract any nonspecific binding background to eliminate the majority of the refractive index change and injection noise. […] The apparent stoichiometry of the captured MBody-rhcMetECD complex was calculated under saturating binding conditions (steady-state equilibrium) using the following formula:

[7] = biological target: T5, rhcMetECD (cMet extracellular domain); assay: SPR (Biacore 3000), binding protein captured on anti-human IgG Fc, rhcMetECD injected, 1:1 Langmuir fit, 25 C
Description: The kinetics of MBody binding to rhcMetECD (extracellular domain) was determined by surface plasmon resonance-based measurements with a Biacore 3000 instrument (Biacore AB, Uppsala, Sweden) using HBS-EP (10 mM HEPES, pH 7.4, 150 mM NaCl, 3 mM EDTA, and 0.005% surfactant P20) at 25° C. […] Approximately, 5000 RU of goat anti-human IgG Fcγ fragment specific polyclonal antibody (Pierce Biotechnology Inc, Rockford, Ill.) diluted in 10 mM sodium acetate (pH 4.5) was directly immobilized across a CM5 research grade biosensor chip using a standard amine coupling kit according to manufacturer's instructions and procedures at 25 mg/ml. Unreacted moieties on the biosensor surface were blocked with ethanolamine. Modified carboxymethyl dextran surface in flowcell 2 and 4 was used as a reaction surface. Unmodified carboxymethyl dextran without goat anti-human IgG in flow cell 1 and 3 was used as the reference surface. For kinetic analysis, rate equations derived from the 1:1 Langmuir binding model were fitted simultaneously to association and dissociation phases of all ten injections (using global fit analysis) using the Bioevaluation 4.0.1 software. Purified MBody samples were diluted in HEPES-buffered saline for capture across goat anti-human IgG Fc specific reaction surfaces and injected over reaction matrices at a flow rate of 5 ml/min. […] The equilibrium dissociation constant (M) of the reaction between MBody and rhcMetECD was then calculated from the kinetic rate constants by the following formula: KD=koff/kon. Aliquots of rhcMetECD samples were also simultaneously injected over a blank reference and reaction CM surface to record and subtract any nonspecific binding background to eliminate the majority of the refractive index change and injection noise. Surfaces were regenerated with two subsequent 25 ml injections of 10 mM Glycine (pH 1.5) at a flow rate of 5 ml/min.

[8] = biological target: T2, c-Met on tumor cell lines (A549, IM-95, …); assay: cell-based or functional assay; remark: listed apart in the source

T2 sequence (P08581 25-1390 limits assumed): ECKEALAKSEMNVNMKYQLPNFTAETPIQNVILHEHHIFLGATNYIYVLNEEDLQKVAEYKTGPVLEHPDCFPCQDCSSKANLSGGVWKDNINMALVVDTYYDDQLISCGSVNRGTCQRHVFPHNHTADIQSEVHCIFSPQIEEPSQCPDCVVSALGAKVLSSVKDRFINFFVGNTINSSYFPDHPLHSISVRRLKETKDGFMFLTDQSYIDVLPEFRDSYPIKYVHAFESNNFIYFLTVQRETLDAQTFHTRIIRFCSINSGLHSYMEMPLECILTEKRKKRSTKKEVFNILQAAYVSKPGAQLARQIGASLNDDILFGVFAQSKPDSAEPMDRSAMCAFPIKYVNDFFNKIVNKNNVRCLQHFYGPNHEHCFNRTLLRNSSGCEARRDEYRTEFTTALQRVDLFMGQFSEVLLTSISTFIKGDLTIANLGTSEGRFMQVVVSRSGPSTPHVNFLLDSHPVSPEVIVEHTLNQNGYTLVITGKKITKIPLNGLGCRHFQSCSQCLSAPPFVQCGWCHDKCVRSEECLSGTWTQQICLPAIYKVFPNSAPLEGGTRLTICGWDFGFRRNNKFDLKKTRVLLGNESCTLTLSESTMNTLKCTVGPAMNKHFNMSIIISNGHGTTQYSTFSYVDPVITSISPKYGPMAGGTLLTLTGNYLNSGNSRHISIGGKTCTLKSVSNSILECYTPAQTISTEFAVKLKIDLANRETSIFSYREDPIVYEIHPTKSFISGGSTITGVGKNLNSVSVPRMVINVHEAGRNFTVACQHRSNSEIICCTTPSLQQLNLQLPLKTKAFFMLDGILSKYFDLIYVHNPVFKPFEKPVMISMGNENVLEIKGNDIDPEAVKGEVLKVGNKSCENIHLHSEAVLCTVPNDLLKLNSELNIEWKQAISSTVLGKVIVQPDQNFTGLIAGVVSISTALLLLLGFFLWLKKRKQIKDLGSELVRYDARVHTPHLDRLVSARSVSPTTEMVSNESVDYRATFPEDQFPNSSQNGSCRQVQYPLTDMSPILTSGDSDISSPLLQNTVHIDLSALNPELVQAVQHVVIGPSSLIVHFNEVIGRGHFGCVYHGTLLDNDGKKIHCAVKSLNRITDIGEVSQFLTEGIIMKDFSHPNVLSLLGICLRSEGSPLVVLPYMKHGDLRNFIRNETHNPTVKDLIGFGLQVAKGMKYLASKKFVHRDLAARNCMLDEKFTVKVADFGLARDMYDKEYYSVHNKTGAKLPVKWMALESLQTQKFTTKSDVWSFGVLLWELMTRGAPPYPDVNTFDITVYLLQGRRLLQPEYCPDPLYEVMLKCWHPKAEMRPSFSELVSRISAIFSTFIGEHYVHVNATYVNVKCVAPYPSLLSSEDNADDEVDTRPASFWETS
T1 sequence (P25942 21-277 limits assumed): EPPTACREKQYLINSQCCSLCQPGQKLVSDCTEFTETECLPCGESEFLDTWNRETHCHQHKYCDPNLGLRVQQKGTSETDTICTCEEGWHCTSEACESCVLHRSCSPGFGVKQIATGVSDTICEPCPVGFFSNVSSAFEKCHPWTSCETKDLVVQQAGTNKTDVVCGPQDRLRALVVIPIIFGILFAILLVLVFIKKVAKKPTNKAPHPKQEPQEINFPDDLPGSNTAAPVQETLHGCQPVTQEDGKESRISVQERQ

B1: Anti-CD40 LA (antibody, human IgG1, kappa, V domains shown)
VH: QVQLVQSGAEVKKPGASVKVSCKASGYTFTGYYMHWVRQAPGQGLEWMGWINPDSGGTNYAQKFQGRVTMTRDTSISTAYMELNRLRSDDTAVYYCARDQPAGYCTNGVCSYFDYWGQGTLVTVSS
VL: DIQMTQSPSSVSASVGDRVTITCRASQGIYSWLAWYQQKPGKAPNLLIYTASTLQSGVPSRFSGSGSGTDFTLTISSLQPEDFATYYCQQANIFPLTFGGGTKVEIKR
EC50 [1]: 0.189 µg/mL

B2: Anti-CD40 YA (antibody, human IgG1, kappa, V domains shown)
VH: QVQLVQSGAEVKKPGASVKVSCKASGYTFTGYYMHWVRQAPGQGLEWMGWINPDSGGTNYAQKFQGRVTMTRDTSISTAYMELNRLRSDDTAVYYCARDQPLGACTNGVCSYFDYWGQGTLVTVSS
VL: DIQMTQSPSSVSASVGDRVTITCRASQGIYSWLAWYQQKPGKAPNLLIYTASTLQSGVPSRFSGSGSGTDFTLTISSLQPEDFATYYCQQANIFPLTFGGGTKVEIKR
EC50 [1]: 0.095 µg/mL

B3: Anti-CD40 VA (antibody, human IgG1, kappa, V domains shown)
VH: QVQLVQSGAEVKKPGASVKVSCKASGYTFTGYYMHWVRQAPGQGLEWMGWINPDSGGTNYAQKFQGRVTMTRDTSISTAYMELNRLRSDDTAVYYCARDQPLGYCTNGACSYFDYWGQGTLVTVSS
VL: DIQMTQSPSSVSASVGDRVTITCRASQGIYSWLAWYQQKPGKAPNLLIYTASTLQSGVPSRFSGSGSGTDFTLTISSLQPEDFATYYCQQANIFPLTFGGGTKVEIKR
EC50 [1]: 0.125 µg/mL

B4: Anti-CD40 NA (antibody, human IgG1, kappa, V domains shown)
VH: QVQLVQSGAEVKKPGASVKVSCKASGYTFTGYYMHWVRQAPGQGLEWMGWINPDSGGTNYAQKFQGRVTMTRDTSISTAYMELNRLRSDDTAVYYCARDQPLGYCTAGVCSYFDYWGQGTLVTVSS
VL: DIQMTQSPSSVSASVGDRVTITCRASQGIYSWLAWYQQKPGKAPNLLIYTASTLQSGVPSRFSGSGSGTDFTLTISSLQPEDFATYYCQQANIFPLTFGGGTKVEIKR
EC50 [1]: 2.12 µg/mL

B5: Anti-CD40 YNV (antibody, human IgG1, kappa, V domains shown)
VH: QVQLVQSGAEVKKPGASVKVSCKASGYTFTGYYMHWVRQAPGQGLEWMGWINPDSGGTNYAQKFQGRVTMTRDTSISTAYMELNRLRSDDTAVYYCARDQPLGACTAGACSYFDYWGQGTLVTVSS
VL: DIQMTQSPSSVSASVGDRVTITCRASQGIYSWLAWYQQKPGKAPNLLIYTASTLQSGVPSRFSGSGSGTDFTLTISSLQPEDFATYYCQQANIFPLTFGGGTKVEIKR
binding result [1]: no binding (tested: 0.01 µg/ml to 10 µg/ml)

B6: Anti-CD40 LYNV (antibody, human IgG1, kappa, V domains shown)
VH: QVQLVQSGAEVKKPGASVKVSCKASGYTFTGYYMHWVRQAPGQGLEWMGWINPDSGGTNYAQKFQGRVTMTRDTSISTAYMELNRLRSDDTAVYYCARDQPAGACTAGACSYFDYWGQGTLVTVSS
VL: DIQMTQSPSSVSASVGDRVTITCRASQGIYSWLAWYQQKPGKAPNLLIYTASTLQSGVPSRFSGSGSGTDFTLTISSLQPEDFATYYCQQANIFPLTFGGGTKVEIKR
binding result [1]: no binding (tested: 0.01 µg/ml to 10 µg/ml)

B7: MetMAb1 (antibody, V domains shown)
VH: EVQLVESGGGLVQPGGSLRLSCAASGYTFTSYWLHWVRQAPGKGLEWVGMIDPSNSDTRFNPNFKDRFTISADTSKNTAYLQMNSLRAEDTAVYYCATYRSYVTPLDYWGQGTLVTVSS
VL: DIQMTQSPSSLSASVGDRVTITCKSSQSLLYTSSQKNYLAWYQQKPGKAPKLLIYWASTRESGVPSRFSGSGSGTDFTLTISSLQPEDFATYYCQQYYAYPWTFGQGTKVEIKR
notes: also called monovalent c-Met antibody MetMAb1
Inhibition of HGF-induced phospho-c-Met IC50 (A549 cells) [2]: 3.8 nM | Inhibition of IM-95 proliferation (HGF-dependent) IC50 [2]: 17.4 nM | Inhibition of SNU-5 proliferation (constitutively active c-Met) IC50 [2]: > 600 nM | Inhibition/induction of SNU-620 proliferation (constitutively active c-Met but still HGF-inducible) IC50 [2]: > 600 nM | EC50 (biotin-labeled cMet [3]): 0.27 nM

B8: anti-cMet h5D5 Fab-body (antibody, human IgG1, kappa, V domains shown)
VH: EVQLVESGGGLVQPGGSLRLSCAASGYTFTSYWLHWVRQAPGKGLEWVGMIDPSNSDTRFNPNFKDRFTISADTSKNTAYLQMNSLRAEDTAVYYCATYRSYVTPLDYWGQGTLVTVSS
VL: DIQMTQSPSSLSASVGDRVTITCKSSQSLLYTSSQKNYLAWYQQKPGKAPKLLIYWASTRESGVPSRFSGSGSGTDFTLTISSLQPEDFATYYCQQYYAYPWTFGQGTKVEIKR
notes: Monovalent Fab-Fc heterodimer: LFc chain (VL-CL-linker-Fc knob) and HFc chain (VH-CH1-linker-Fc hole)
Inhibition of HGF-induced phospho-c-Met IC50 (A549 cells) [2]: 2.6 nM | Inhibition of IM-95 proliferation (HGF-dependent) IC50 [2]: 12.8 nM | Inhibition of SNU-5 proliferation (constitutively active c-Met) IC50 [2]: 4.1 nM | Inhibition/induction of SNU-620 proliferation (constitutively active c-Met but still HGF-inducible) IC50 [2]: > 600 nM | EC50 (biotin-labeled cMet [3]): 0.24 nM

B9: cMet AA1 Ig (antibody, human IgG1, kappa, V domains shown)
VH: QVQLQQSGPELVRPGASVKMSCRASGYTFTSYWLHWVKQRPGQGLEWIGMIDPSNSDTRFNPNFKDKATLNVDRSSNTAYMLLSSLTSADSAVYYCAAYGSYVSPLDYWGQGTSVTVSS
VL: DFMMSQSPSSLTVSVGEKVTVSCKSSQSLLYTSSQKNYLAWYQQKPGQSPKLLIYWASTRESGVPDRFTGSGSGTDFTLTITSVKADDLAVYYCQQYYAYPWTFGGGTKLELKR
notes: HC CDR3 alanine-scanning mutant paired with the common cMet LC; also called Anti-cMet-AA1
EC50 (biotin-labeled cMet [4]): 7.25 nM

B10: Anti-human c-Met antibody 5D5 (antibody, V domains shown)
VH: QVQLQQSGPELVRPGASVKMSCRASGYTFTSYWLHWVKQRPGQGLEWIGMIDPSNSDTRFNPNFKDKATLNVDRSSNTAYMLLSSLTSADSAVYYCATYGSYVSPLDYWGQGTSVTVSS
VL: DFMMSQSPSSLTVSVGEKVTVSCKSSQSLLYTSSQKNYLAWYQQKPGQSPKLLIYWASTRESGVPDRFTGSGSGTDFTLTITSVKADDLAVYYCQQYYAYPWTFGGGTKLELKR
notes: VH and VL are those cloned from hybridoma HB-11895 (5D5.11.6); also called bivalent antibody 5D5
Inhibition of HGF-induced phospho-c-Met IC50 (A549 cells) [2]: 1.4 nM | Inhibition of IM-95 proliferation (HGF-dependent) IC50 [2]: 5.8 nM | Inhibition of SNU-5 proliferation (constitutively active c-Met) IC50 [2]: > 600 nM | EC50 (biotin-labeled cMet [3]): 0.08 nM

B11: cMet AA5 Ig (antibody, human IgG1, kappa, V domains shown)
VH: QVQLQQSGPELVRPGASVKMSCRASGYTFTSYWLHWVKQRPGQGLEWIGMIDPSNSDTRFNPNFKDKATLNVDRSSNTAYMLLSSLTSADSAVYYCATYGSYVSPLDYWGQGTSVTVSS
VL: DFMMSQSPSSLTVSVGEKVTVSCKSSQSLLYTSSQKNYLAWYQQKPGQSPKLLIYWASTRESGVPDRFTGSGSGTDFTLTITSVKADDLAVYYCQQYYAYPWTFGGGTKLELKR
notes: the intended AA5 mutation is not visible; also called Anti-cMet-AA5
EC50 (biotin-labeled cMet [4]): 1.81 nM

B12: 5D5 Fab (Fab, V domains shown)
VH: QVQLQQSGPELVRPGASVKMSCRASGYTFTSYWLHWVKQRPGQGLEWIGMIDPSNSDTRFNPNFKDKATLNVDRSSNTAYMLLSSLTSADSAVYYCATYGSYVSPLDYWGQGTSVTVSS
VL: DFMMSQSPSSLTVSVGEKVTVSCKSSQSLLYTSSQKNYLAWYQQKPGQSPKLLIYWASTRESGVPDRFTGSGSGTDFTLTITSVKADDLAVYYCQQYYAYPWTFGGGTKLELKR
Inhibition of HGF-induced phospho-c-Met IC50 (A549 cells) [2]: 5.9 nM | Inhibition of IM-95 proliferation (HGF-dependent) IC50 [2]: 55.7 nM | Inhibition of SNU-5 proliferation (constitutively active c-Met) IC50 [2]: > 600 nM | Inhibition/induction of SNU-620 proliferation (constitutively active c-Met but still HGF-inducible) IC50 [2]: > 600 nM

B13: cMet AA4 Ig (antibody, human IgG1, kappa, V domains shown)
VH: QVQLQQSGPELVRPGASVKMSCRASGYTFTSYWLHWVKQRPGQGLEWIGMIDPSNSDTRFNPNFKDKATLNVDRSSNTAYMLLSSLTSADSAVYYCATYGSYAAPLDYWGQGTSVTVSS
VL: DFMMSQSPSSLTVSVGEKVTVSCKSSQSLLYTSSQKNYLAWYQQKPGQSPKLLIYWASTRESGVPDRFTGSGSGTDFTLTITSVKADDLAVYYCQQYYAYPWTFGGGTKLELKR
notes: HC CDR3 alanine-scanning mutant paired with the common cMet LC; also called Anti-cMet-AA4
EC50 (biotin-labeled cMet [4]): 1.24 nM

B14: cMet mAb KH (cMet mAb with knobs-into-holes mutations) (antibody, human IgG1, kappa)
heavy 1: not shown
heavy 2: not shown
light: DFMMSQSPSSLTVSVGEKVTVSCKSSQSLLYTSSQKNYLAWYQQKPGQSPKLLIYWASTRESGVPDRFTGSGSGTDFTLTITSVKADDLAVYYCQQYYAYPWTFGGGTKLELKRTVAAPSVFIFPPSDEQLKSGTASVVCLLNNFYPREAKVQWKVDNALQSGNSQESVTEQDSKDSTYSLSSTLTLSKADYEKHKVYACEVTHQGLSSPVTKSFNRGEC
EC50 [5]: 44.4 µg/mL | Stoichiometry [6]: 1.53 | Kd [7]: 2.08 nM | koff [7]: 0.000195 s⁻¹ | kon [7]: 93600 M⁻¹ s⁻¹

B15: cMet AA3 KH MBody (antibody, human IgG1, kappa)
heavy 1: not shown
heavy 2: not shown
light: DFMMSQSPSSLTVSVGEKVTVSCKSSQSLLYTSSQKNYLAWYQQKPGQSPKLLIYWASTRESGVPDRFTGSGSGTDFTLTITSVKADDLAVYYCQQYYAYPWTFGGGTKLELKRTVAAPSVFIFPPSDEQLKSGTASVVCLLNNFYPREAKVQWKVDNALQSGNSQESVTEQDSKDSTYSLSSTLTLSKADYEKHKVYACEVTHQGLSSPVTKSFNRGEC
Inhibition of IM95 Proliferation, EC50 [8]: 2.14 µg/mL | EC50 [5]: 38 µg/mL

B16: cMet AA6 KH MBody (antibody, human IgG1, kappa)
heavy 1: not shown
heavy 2: not shown
light: DFMMSQSPSSLTVSVGEKVTVSCKSSQSLLYTSSQKNYLAWYQQKPGQSPKLLIYWASTRESGVPDRFTGSGSGTDFTLTITSVKADDLAVYYCQQYYAYPWTFGGGTKLELKRTVAAPSVFIFPPSDEQLKSGTASVVCLLNNFYPREAKVQWKVDNALQSGNSQESVTEQDSKDSTYSLSSTLTLSKADYEKHKVYACEVTHQGLSSPVTKSFNRGEC
Inhibition of IM95 Proliferation, EC50 [8]: 1.86 µg/mL | EC50 [5]: 51.1 µg/mL

B17: cMet AA2 HK MBody (antibody, human IgG1, kappa)
heavy 1: not shown
heavy 2: not shown
light: DFMMSQSPSSLTVSVGEKVTVSCKSSQSLLYTSSQKNYLAWYQQKPGQSPKLLIYWASTRESGVPDRFTGSGSGTDFTLTITSVKADDLAVYYCQQYYAYPWTFGGGTKLELKRTVAAPSVFIFPPSDEQLKSGTASVVCLLNNFYPREAKVQWKVDNALQSGNSQESVTEQDSKDSTYSLSSTLTLSKADYEKHKVYACEVTHQGLSSPVTKSFNRGEC
Inhibition of IM95 Proliferation, EC50 [8]: 0.23 µg/mL | EC50 [5]: 31.5 µg/mL

B18: cMet AA3 HK MBody (antibody, human IgG1, kappa)
heavy 1: not shown
heavy 2: not shown
light: DFMMSQSPSSLTVSVGEKVTVSCKSSQSLLYTSSQKNYLAWYQQKPGQSPKLLIYWASTRESGVPDRFTGSGSGTDFTLTITSVKADDLAVYYCQQYYAYPWTFGGGTKLELKRTVAAPSVFIFPPSDEQLKSGTASVVCLLNNFYPREAKVQWKVDNALQSGNSQESVTEQDSKDSTYSLSSTLTLSKADYEKHKVYACEVTHQGLSSPVTKSFNRGEC
Inhibition of IM95 Proliferation, EC50 [8]: 1.6 µg/mL | EC50 [5]: 34.8 µg/mL

B19: cMet AA6 HK MBody (antibody, human IgG1, kappa)
heavy 1: not shown
heavy 2: not shown
light: DFMMSQSPSSLTVSVGEKVTVSCKSSQSLLYTSSQKNYLAWYQQKPGQSPKLLIYWASTRESGVPDRFTGSGSGTDFTLTITSVKADDLAVYYCQQYYAYPWTFGGGTKLELKRTVAAPSVFIFPPSDEQLKSGTASVVCLLNNFYPREAKVQWKVDNALQSGNSQESVTEQDSKDSTYSLSSTLTLSKADYEKHKVYACEVTHQGLSSPVTKSFNRGEC
Inhibition of IM95 Proliferation, EC50 [8]: 2.73 µg/mL | EC50 [5]: 47.1 µg/mL
